Patent US20250320281A1

Key:
Test in all cases: cell-based or functional assay
[1] = target: HIV-1 Env of isolate MGRM-C-026 (clade C) on pseudovirus (HIV-1)
[2] = target: HIV-1 Env of isolate MGRM-D-001 (clade D) on pseudovirus (HIV-1)
[3] = target: HIV-1 Env of isolate JRFL (clade B) on pseudovirus (HIV-1)
[4] = target: HIV-1 Env of isolate 92RW020 (clade A) on pseudovirus (HIV-1)
[5] = target: HIV-1 Env of isolate 93UG077 (clade A) on pseudovirus (HIV-1)
[6] = target: HIV-1 Env of isolate APV6 (clade B) on pseudovirus (HIV-1)
[7] = target: HIV-1 Env of isolate MGRM-D-018 (clade D) on pseudovirus (HIV-1)
[8] = target: HIV-1 Env of isolate APV13 (clade B) on pseudovirus (HIV-1)
[9] = target: HIV-1 Env of isolate APV17 (clade B) on pseudovirus (HIV-1)
[10] = target: HIV-1 Env of isolate 92BR020 (clade B) on pseudovirus (HIV-1)
[11] = target: HIV-1 Env of isolate MGRM-C-027 (clade C) on pseudovirus (HIV-1)
[12] = target: HIV-1 Env of isolate JRCSF (clade B) on pseudovirus (HIV-1) (UniProt P20871)
[13] = target: HIV-1 Env of isolate 94UG103 (clade A) on pseudovirus (HIV-1)
[14] = target: HIV-1 Env of isolate 93IN905 (clade C) on pseudovirus (HIV-1)

PGT-121 (4838_L06; 4873_E03) human monoclonal anti-HIV antibody
IC95 (pseudovirus neutralization) [1]: 0.0687 µg/mL
IC80 (pseudovirus neutralization) [2]: 3.29 µg/mL
IC90 (pseudovirus neutralization) [2]: 6.26 µg/mL
IC95 (pseudovirus neutralization) [2]: 9.39 µg/mL
IC80 (pseudovirus neutralization) [3]: 0.0806 µg/mL
IC90 (pseudovirus neutralization) [3]: 0.151 µg/mL
IC95 (pseudovirus neutralization) [3]: 0.267 µg/mL
IC80 (pseudovirus neutralization) [4]: 0.0188 µg/mL
IC90 (pseudovirus neutralization) [4]: 0.0361 µg/mL
IC95 (pseudovirus neutralization) [4]: 0.0671 µg/mL
IC90 (pseudovirus neutralization) [5]: 0.369 µg/mL
IC95 (pseudovirus neutralization) [5]: 0.74 µg/mL
IC80 (pseudovirus neutralization) [6]: 0.145 µg/mL
IC95 (pseudovirus neutralization) [6]: 0.569 µg/mL
IC80 (pseudovirus neutralization) [7]: 0.0231 µg/mL
IC90 (pseudovirus neutralization) [7]: 0.0414 µg/mL
IC95 (pseudovirus neutralization) [7]: 0.0715 µg/mL
IC80 (pseudovirus neutralization) [8]: 1.31 µg/mL
IC90 (pseudovirus neutralization) [8]: 2.8 µg/mL
IC95 (pseudovirus neutralization) [8]: 5.15 µg/mL
IC80 (pseudovirus neutralization) [9]: 0.371 µg/mL
IC90 (pseudovirus neutralization) [9]: 0.799 µg/mL
IC95 (pseudovirus neutralization) [9]: 1.55 µg/mL
IC80 (pseudovirus neutralization) [10]: 0.0532 µg/mL
IC90 (pseudovirus neutralization) [10]: 0.101 µg/mL
IC80 (pseudovirus neutralization) [11]: 0.0829 µg/mL
IC90 (pseudovirus neutralization) [11]: 0.374 µg/mL
IC95 (pseudovirus neutralization) [11]: 3.14 µg/mL
IC90 (pseudovirus neutralization) [12]: 0.223 µg/mL
IC95 (pseudovirus neutralization) [12]: 0.417 µg/mL
IC80 (pseudovirus neutralization) [13]: 8.85 µg/mL
IC80 (pseudovirus neutralization) [14]: 0.0302 µg/mL
IC90 (pseudovirus neutralization) [14]: 0.0645 µg/mL
